# Changes are numbered by the printed parent chain. Numbers in names are those of the source.
# B1: His6-OSK1^S53D (natural protein, rice, UniProt Q6PL11 1-173, looked up)
# chain: MAAEGEKKMITLKSSDGEEFEVEEAVAMESQTIRHMIEDDCADNGIPLPNVNDKILSKVIEYCNKHVHAAAAAASKAADDAASAAAAVPPPSGEDLKNWDADFVKVDQATLFDLILAANYLNIKGLLDLTCQTVADMIKGKTPEEIRKTFNIKNDFTPEEEEEIRRENQWAFE
# B2: GST-OSK1 (natural protein, rice, UniProt Q6PL11 1-173, looked up)
# chain: B1 chain with D53S
# notes: not shown: GST, N-terminal, kept
# B3: His6-OSK1 (natural protein, rice, UniProt Q6PL11 1-173, looked up)
# chain: B1 chain with D53S
# B4: GST-OSK1^S53D (natural protein, rice, UniProt Q6PL11 1-173, looked up)
# chain: B1 chain
# notes: as for B2
# What was measured:
# Settings in all cases: both partners purified
# [1] = molecular target: T1, His6-TF-SUMO-OsCOI1b (rice, UniProt Q60EH4 1-597); assay: MST
# T1 construct: also called His6-OsCOI1b
# T1 sequence (looked up): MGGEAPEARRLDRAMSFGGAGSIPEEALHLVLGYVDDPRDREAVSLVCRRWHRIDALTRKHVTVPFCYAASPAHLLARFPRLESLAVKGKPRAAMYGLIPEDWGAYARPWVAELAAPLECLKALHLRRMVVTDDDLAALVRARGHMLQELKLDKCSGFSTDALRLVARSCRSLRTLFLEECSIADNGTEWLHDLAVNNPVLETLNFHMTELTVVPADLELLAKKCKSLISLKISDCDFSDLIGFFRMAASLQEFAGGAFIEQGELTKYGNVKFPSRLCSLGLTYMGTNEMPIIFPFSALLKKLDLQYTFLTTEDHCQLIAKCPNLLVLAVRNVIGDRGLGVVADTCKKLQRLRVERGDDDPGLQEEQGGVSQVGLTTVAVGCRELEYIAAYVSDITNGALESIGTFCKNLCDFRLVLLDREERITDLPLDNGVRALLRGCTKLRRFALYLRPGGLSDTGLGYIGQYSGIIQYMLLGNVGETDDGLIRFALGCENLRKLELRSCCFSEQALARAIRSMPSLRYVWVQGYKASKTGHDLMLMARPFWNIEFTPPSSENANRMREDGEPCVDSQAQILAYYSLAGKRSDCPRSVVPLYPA
# [2] = molecular target: T2, His6-TF-SUMO-tagged OsCOI1b^R10A (rice, UniProt Q60EH4 1-597, R10A); assay: pull-down
# T2 sequence (looked up): T1 sequence (looked up) with R10A
# [3] = molecular target: T3, His6-TF-SUMO-tagged OsCOI1b^R9A (rice, UniProt Q60EH4 1-597, R9A); assay: pull-down
# T3 sequence (looked up): T1 sequence (looked up) with R9A
# [4] = molecular target: T4, His6-TF-SUMO-tagged OsCOI1b^R13A (rice, UniProt Q60EH4 1-597, R13A); assay: pull-down
# T4 sequence (looked up): T1 sequence (looked up) with R13A
binder,measurement,setting,value
B1,Kd,[1],12.7 nM
B2,binding result,[2],binds
same,binding result,[3],binds
same,binding result,[4],binds
B3,Kd,[1],53.8 nM
B4,binding result,[2],binds
same,binding result,[3],binds
same,binding result,[4],binds

# — publication PMC8445998 (Nature Communications, 2021)
